Experimental data from patent US20070265201A1 (published 2007).
Ends that are not written are not given here.

Tests used:
Experiment in all cases: GST pull-down, 35S-labeled in vitro translated probe, autoradiography
[1] = target: T1, Cytomegalovirus (CMV) Immediate Early 2 protein (IE2), in vitro translated radiolabeled probe (human Cytomegalovirus (hCMV), UniProt P19893 1-580, labeled with 35S methionine)
T1 sequence: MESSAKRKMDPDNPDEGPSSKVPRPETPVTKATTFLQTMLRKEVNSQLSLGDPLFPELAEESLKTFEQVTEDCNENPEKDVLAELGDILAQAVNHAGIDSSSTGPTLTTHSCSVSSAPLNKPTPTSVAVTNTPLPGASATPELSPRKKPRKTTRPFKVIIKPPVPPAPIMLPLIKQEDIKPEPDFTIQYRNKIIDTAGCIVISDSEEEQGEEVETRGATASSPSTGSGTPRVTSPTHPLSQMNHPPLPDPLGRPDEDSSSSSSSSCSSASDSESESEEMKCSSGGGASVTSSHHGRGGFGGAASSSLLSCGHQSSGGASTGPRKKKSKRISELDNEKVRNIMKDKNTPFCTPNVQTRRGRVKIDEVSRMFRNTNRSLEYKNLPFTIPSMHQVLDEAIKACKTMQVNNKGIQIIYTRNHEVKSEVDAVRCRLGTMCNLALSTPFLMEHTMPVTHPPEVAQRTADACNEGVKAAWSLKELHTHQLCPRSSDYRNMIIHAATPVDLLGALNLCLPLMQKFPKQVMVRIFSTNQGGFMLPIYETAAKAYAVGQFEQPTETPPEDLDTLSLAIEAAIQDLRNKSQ

[2] = target: T2, Spi-1 ETS domain, in vitro translated radiolabeled probe (UniProt P17947 170-253)
T2 construct: domain: ETS domain; also called PU.1 ETS domain

[3] = target: T3, C/EBPβ bZIP domain, in vitro translated radiolabeled probe (UniProt P17676 269-345, labeled with 35S methionine)
T3 construct: range 269-345; Residues 269-345 are stated for the bZIP expression vector in pcDNA3.1; also called bZIP region of NFIL6

Measured: binding result

T3 sequence (P17676 269-345 limits assumed): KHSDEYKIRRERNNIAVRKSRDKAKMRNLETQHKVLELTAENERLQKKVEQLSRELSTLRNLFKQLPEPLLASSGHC

B1: GST fusion of IE2 291-364 fragment with an internal deletion of residues 315-328 (delA) (other)
chain: SSHHGRGGFGGAASSSLLSCGHQSRISELDNEKVRNIMKDKNTPFCTPNVQTRRGRVKID
modifications: cysteine pairing not given here; also: GST fusion, linker and position not given here
notes: also called IE2 291-364Δ315-328; not shown: glutathione-S-transferase (GST) fusion partner
no binding: all assays above
